Data set [1] concerns the target GST-Yap8-7aa A23T;L26N;S29A;N31R;K35E;L37E;E39R (Saccharomyces cerevisiae) (UniProt Q06596). Description: fluorescence anisotropy. To be noted: FA: 10 mM Tris-HCl pH 8, 50 mM NaCl, 0.5% NP-40, 1 mM DTT, 5% glycerol, 1 nM DNA, 25C (half volume protein elution buffer). Biotin EMSA: LightShift 1x buffer ….
The target in data set [2] is GST-Yap8-8aa N20Q;A23T;L26N;S29A;N31R;K35E;L37E;E39R (Saccharomyces cerevisiae) (UniProt Q06596). As to the kind of experiment: fluorescence anisotropy. To be noted: FA: 10 mM Tris-HCl pH 8, 50 mM NaCl, 0.5% NP-40, 1 mM DTT, 5% glycerol, 1 nM DNA, 25C (half volume protein elution buffer). Biotin EMSA: LightShift 1x buffer ….
The target in another data set is T1, GST-Yap8-4aa (Saccharomyces cerevisiae, UniProt Q06596 1-294, A23T;L26N;S29A;N31R).
T1 sequence: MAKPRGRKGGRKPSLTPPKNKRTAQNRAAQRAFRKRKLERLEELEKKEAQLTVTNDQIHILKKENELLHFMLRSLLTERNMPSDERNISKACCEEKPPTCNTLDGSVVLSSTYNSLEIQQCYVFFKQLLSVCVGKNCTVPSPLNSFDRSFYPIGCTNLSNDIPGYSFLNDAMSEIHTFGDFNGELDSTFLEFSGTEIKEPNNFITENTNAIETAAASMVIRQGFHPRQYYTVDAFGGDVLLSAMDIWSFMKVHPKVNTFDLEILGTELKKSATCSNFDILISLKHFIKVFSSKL
As to the kind of experiment: EMSA; FA: 10 mM Tris-HCl pH 8, 50 mM NaCl, 0.5% NP-40, 1 mM DTT, 5% glycerol, 1 nM DNA, 25C (half volume protein elution buffer). Biotin EMSA: LightShift 1x buffer, 50 ng poly(dI-dC), 2.5% glycerol, 0.05% NP-40, 5 mM MgCl2, 20 fmol probe, RT 20 min. 32P EMSA: 10 mM Tris-HCl pH 8.0, 50 mM NaCl, 1 mM DTT, 0.05% NP-40, 100 ng poly(dI-dC), 6% glycerol, 4C 30 min. The note with it: protein: recombinant, tags: GST (N-term), chain copies: 2, blunt.

Data set [3] addresses T2, GST-Yap8 WT (Saccharomyces cerevisiae, UniProt Q06596 1-294).
T2 sequence: T1 sequence with T23A, N26L, A29S, R31N
As to the kind of experiment: fluorescence anisotropy; series c; FA: 10 mM Tris-HCl pH 8, 50 mM NaCl, 0.5% NP-40, 1 mM DTT, 5% glycerol, 1 nM DNA, 25C (half volume protein elution buffer). Biotin EMSA: LightShift 1x buffer, 50 ng poly(dI-dC), 2.5% glycerol, 0.05% NP-40, 5 mM MgCl2, 20 fmol probe, RT 20 min. 32P EMSA: 10 mM Tris-HCl pH 8.0, 50 mM NaCl, 1 mM DTT, 0.05% NP-40, 100 ng poly(dI-dC), 6% glycerol, 4C 30 min. To be noted: protein: recombinant; tags: GST (N-term); chain copies: 2; label: 5' FAM; blunt.

The target in another data set is T3, GST-Yap8-R11K (Saccharomyces cerevisiae, UniProt Q06596 1-294, R11K).
T3 sequence: T1 sequence with R11K, T23A, N26L, A29S, R31N
As to the kind of experiment: EMSA; FA: 10 mM Tris-HCl pH 8, 50 mM NaCl, 0.5% NP-40, 1 mM DTT, 5% glycerol, 1 nM DNA, 25C (half volume protein elution buffer). Biotin EMSA: LightShift 1x buffer, 50 ng poly(dI-dC), 2.5% glycerol, 0.05% NP-40, 5 mM MgCl2, 20 fmol probe, RT 20 min. 32P EMSA: 10 mM Tris-HCl pH 8.0, 50 mM NaCl, 1 mM DTT, 0.05% NP-40, 100 ng poly(dI-dC), 6% glycerol, 4C 30 min. The note with it: protein: recombinant; tags: GST (N-term); chain copies: 2; blunt.

The target in a further data set is T4, GST-Yap8-G10A (Saccharomyces cerevisiae, UniProt Q06596 1-294, G10A).
T4 sequence: T1 sequence with G10A, T23A, N26L, A29S, R31N
The data set is described as above. The note with it: protein: recombinant; tags: GST (N-term); chain copies: 2; blunt.

For a further data set, the target named is T5, GST-Yap8-R7K,R11K (Saccharomyces cerevisiae, UniProt Q06596 1-294, R7K;R11K).
T5 sequence: T1 sequence with R7K, R11K, T23A, N26L, A29S, R31N
Described as above. The note with it: protein: recombinant; tags: GST (N-term); chain copies: 2; blunt.

A further data set concerns the target T6, GST-Yap8-N20Q (Saccharomyces cerevisiae, UniProt Q06596 1-294, N20Q).
T6 sequence: T1 sequence with N20Q, T23A, N26L, A29S, R31N
Described as above. The note with it: protein: recombinant; tags: GST (N-term); chain copies: 2; label: 32P 5'; blunt.

The target in data set [4] is T2, GST-Yap8 WT. The data set is described as above. To be noted: protein: recombinant; tags: GST (N-term); chain copies: 2; label: 32P 5'; blunt.
The target of the next data set is T7, GST-Yap8-N20A (Saccharomyces cerevisiae, UniProt Q06596 1-294, N20A).
T7 sequence: T1 sequence with N20A, T23A, N26L, A29S, R31N
The data set is described as above. The note with it: protein: recombinant; tags: GST (N-term); chain copies: 2; label: 32P 5'; blunt.

Changes are numbered by the printed parent chain.

Sequence of GST-Yap8-7aa A23T;L26N;S29A;N31R;K35E;L37E;E39R (Saccharomyces cerevisiae) (Q06596 whole entry, stated change not applied): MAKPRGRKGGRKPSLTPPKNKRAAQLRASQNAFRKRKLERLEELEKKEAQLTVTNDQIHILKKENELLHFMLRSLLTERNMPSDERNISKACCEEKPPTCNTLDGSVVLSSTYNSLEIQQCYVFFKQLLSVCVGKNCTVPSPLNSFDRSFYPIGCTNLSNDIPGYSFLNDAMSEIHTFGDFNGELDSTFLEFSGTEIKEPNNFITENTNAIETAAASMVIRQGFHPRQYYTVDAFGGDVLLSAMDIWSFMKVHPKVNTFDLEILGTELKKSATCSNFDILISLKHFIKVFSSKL

“CTTTTTGTTTGATTAATAATCAACTTTAGCG (double strand) [ACR3-WT (FAM)]”: the dissociation constant (Kd) in data set [1] was 9.3 nM; in data set [2], 15.1 nM.

B1: TRX2short (dsDNA)
DNA 1: ATTGTTTATACTCTTAGTAAAGGATGCTCCCTACAAGGTGGCTCTTTTCTTACTAAGCGCGTTCAGTTTC
DNA 2: GAAACTGAACGCGCTTAGTAAGAAAAGAGCCACCTTGTAGGGAGCATCCTTTACTAAGAGTATAAACAAT
For the molecule B1, the binding result with GST-Yap8-4aa (label: 32P 5') is on record as “no binding”.

B2: ACR3-M3 (FAM) (dsDNA)
DNA 1: CTTTGCGGCTGATTAATAATCAACCGGAGCG
DNA 2: CGCTCCGGTTGATTATTAATCAGCCGCAAAG
In the case of B2, the Kd with GST-Yap8 WT [3] worked out at 19.4 ± 4.1 nM.

B3: ACR3short (WT) (dsDNA)
DNA 1: TCTTAATTATCTTTTTGTTTGATTAATAATCAACTTTAGCGGCAACGCTCC
DNA 2: GGAGCGTTGCCGCTAAAGTTGATTATTAATCAAACAAAAAGATAATTAAGA
As to B3, the binding result with GST-Yap8-R11K is listed as “no binding”; with GST-Yap8-G10A, “no binding”; with GST-Yap8-4aa, “binds”; with GST-Yap8-R7K,R11K it was “no binding”.

B4: GSH1short (dsDNA)
DNA 1: TTCTGCCCAACGACGGCTGCCATTAGTCAGCATGGCGCGCACGTGACTACA
DNA 2: TGTAGTCACGTGCGCGCCATGCTGACTAATGGCAGCCGTCGTTGGGCAGAA
On to B4, for which the binding result with GST-Yap8-N20Q, with GST-Yap8 WT [4] and in the data set with GST-Yap8-N20A was “no binding” throughout.

The record behind these values is publication PMC7261193, “The ancillary N-terminal region of the yeast AP-1 transcription factor Yap8 contributes to its DNA binding specificity”.
